Assay results from patent US20240369568A1.

Assays:
Assay in all cases: SPR, release and stability method, specific binding activity
[1] = molecular target: FcRn (UniProt P55899)
[2] = molecular target: BCMA (the 'Antigen' of the SPR antigen binding assay) (human) (UniProt Q02223)
[3] = molecular target: FcγRIIIa (UniProt P08637)
Sequence of FcγRIIIa (P08637 17-208 limits assumed): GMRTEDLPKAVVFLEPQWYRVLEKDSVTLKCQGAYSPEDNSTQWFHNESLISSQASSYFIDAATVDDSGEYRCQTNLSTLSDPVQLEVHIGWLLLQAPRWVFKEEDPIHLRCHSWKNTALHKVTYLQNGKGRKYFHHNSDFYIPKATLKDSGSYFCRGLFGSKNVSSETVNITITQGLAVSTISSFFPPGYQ

Sequence of BCMA (the 'Antigen' of the SPR antigen binding assay) (human) (Q02223 1-54 limits assumed): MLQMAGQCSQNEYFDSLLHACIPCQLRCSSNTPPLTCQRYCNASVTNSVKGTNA

FcRNn Binding (%) (specific binding activity) [1]: 101% | Antigen Binding (%) (specific binding activity) [2]: 96% | FcyRIIIa Binding (%) (specific binding activity) [3]: 97%
Substance: Control (sample of Table 11)
